The record followed here is US20160289321A1 (SHANGHAI HENGRUI PHARMACEUTICAL, published 2016).

One assay addresses T1, Mouse IL-17A (Mu IL-17A) (mouse, UniProt Q62386 26-158).
T1 sequence (looked up): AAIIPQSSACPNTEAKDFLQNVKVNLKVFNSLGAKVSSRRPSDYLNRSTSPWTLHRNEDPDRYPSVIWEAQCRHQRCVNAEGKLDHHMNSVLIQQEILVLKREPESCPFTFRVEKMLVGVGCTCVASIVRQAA
Briefly: SPR (Biacore X100), antibody captured on the chip, mouse IL-17 as analyte. The method, then: (§1) 2. Binding kinetics Test: FC1 (Flow cell 1) was used as the reference channel, FC2 (Flow cell 2) was used as the sample channel, and murine or humanized control antibody or the antibody of the present invention was captured in the FC2 channel at 300RU, followed by the injection of different concentrations of IL-17 (including hIL-17A, MuIL-17, Rat IL-17). Cycle conditions were: injecting analytes into all FC channels at 30 μl/min for 3min, dissociation for 20 min, injecting 10 mM Glycine, pH 1.5, for 60 s (at rate of 10 μl/min) for surface regeneration. The difference between the signal with captured antibody and the signal without captured antibody was calculated using Biacore X100 evaluation software ver 2.0 (Biacore), and the running buffer was 10 mM Hepes, […], 3 mM EDTA, 0.05% Tween-20.
(§2) 2. Humanized IL-17 antibodies obtained from Example 2 were tested using the above method, and the results were as follows: […]
(In general: SPR reads the build-up and loss of mass on a sensor chip optically.)

The target in the next assay is T2, Rat IL-17A (rat, UniProt Q61453 18-150, limits assumed).
T2 sequence (looked up): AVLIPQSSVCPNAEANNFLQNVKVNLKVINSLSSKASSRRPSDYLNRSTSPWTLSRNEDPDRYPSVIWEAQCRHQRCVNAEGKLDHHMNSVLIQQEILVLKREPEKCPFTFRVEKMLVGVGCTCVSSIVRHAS
Briefly: SPR (Biacore X100), antibody captured on the chip, rat IL-17 as analyte. As to the method:
as §1, §2

Another assay deals with Cyno IL-17A (cynomolgus, UniProt A0A2K5TTB0 24-155). Kind of assay: cell-based or functional assay.
Sequence of Cyno IL-17A (A0A2K5TTB0 entry or part of it): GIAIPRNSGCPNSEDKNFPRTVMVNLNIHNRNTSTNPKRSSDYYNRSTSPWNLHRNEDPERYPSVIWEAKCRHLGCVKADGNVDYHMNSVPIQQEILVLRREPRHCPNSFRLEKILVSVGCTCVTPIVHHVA
Assay [1] has as its target T3, Recombinant human IL-17A/F (rhIL-17A/F), R&D System Cat No.5194-IL/CF (human, UniProt Q16552 20-155; Q96PD4 31-163, limits assumed). Briefly: cell-based or functional assay.
In assay [2] the target is T4, Recombinant human IL-17A (rhIL-17A), R&D Systems Cat.No.317-ILB (human, UniProt Q16552 20-155, limits assumed). Briefly: cell-based or functional assay.
T4 sequence (Q16552 20-155 limits assumed): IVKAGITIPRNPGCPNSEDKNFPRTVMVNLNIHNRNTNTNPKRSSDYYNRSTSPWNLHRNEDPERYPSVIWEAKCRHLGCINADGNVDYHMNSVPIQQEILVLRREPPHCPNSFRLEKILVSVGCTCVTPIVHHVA
Assay [3] addresses T5, Human IL-17A (hIL-17A), expressed in HEK293E (human, UniProt Q16552 24-155). Kind of assay: SPR (Biacore X100), antibody captured on the chip, IL-17A as analyte. The method, then:
as §1, §2

Assay [4] has as its target T3, Recombinant human IL-17A/F …. Kind of assay: cell-based or functional assay. This is another data set of the same source.
The target of assay [5] is T4, Recombinant human IL-17A (rhIL-17A), …. Kind of assay: cell-based or functional assay. The source holds these as a separate data set.
Assay [6] concerns the target T5, Human IL-17A (hIL-17A), expressed in …. Briefly: indirect ELISA, hIL-17A or hIL-17A/F on streptavidin plates, OD450 against Lilly mAb and Novartis mAb. As to the method: 6. The positive controls, Lilly mAb and Novartis mAb, or murine mAbs antibodies of the present invention were titrated at a 1:5 dilution, with an initial concentration of 1 μg/ml. 100 μl of diluted positive control or murine antibody of the present invention were added to each well, and the plates were thermostatically incubated at 37° C. for 1 h. Each concentration was tested in duplicate;
10. The OD value at a wavelength of 450 nm was read on an ELISA microplate reader (Molecular Devices, Spectra Max).
11. The OD values of the murine mAb antibodies were compared to those of the positive controls. Monoclonal cell lines with a ratio greater than 1, including IL17-mAb049, were screened.
On the technique in general: An ELISA detects its analyte on a solid surface through an enzyme-linked reagent.

The next assay deals with T6, biotin-labeled IL-17A (human, UniProt Q16552 24-155, limits assumed, biotin-labeled (sites not given)).
T6 construct: also called huIL-17
T6 sequence (Q16552 24-155 limits assumed): as the sequence (A0A2K5TTB0 entry or part of it) above, with A3T, S8P, S34N, V77I, K78N, R104P counted along it
Briefly: receptor blocking ELISA (RBA): antibody titrated against biotin-labeled IL-17A binding to captured IL-17RA-Fc. As to the method: 6. The positive controls, Lilly mAb and Novartis mAb, or antibodies of the present invention were diluted at a 1:5 ratio, with an initial concentration of 40 μg/ml. mIgG was diluted using the same method. 50 μl of diluted positive control, murine antibody of the present invention, or mIgG were added to each well, and, 50 μof 0.2nM biotin-labeled IL-17A were added to the wells containing diluted positive control or the antibody of the present invention, mixed gently and the plates were thermostatically incubated at 37° C. for 1 h.
7. The plates were washed with PBST three times; 8. 100 μl of HRP-labeled streptavidin complex (1:5000) were added to each well, and the plates were thermostatically incubated at 37° C. for 1 h;

The target in assay [7] is T5, Human IL-17A (hIL-17A), expressed in …. Kind of assay: SPR (Biacore X100), antibody captured on the chip, IL-17A as analyte. As to the method:
as §1
1. Hybridomas obtained in Example 1 were tested using the above method, and the results were as follows: […]
The source holds these as a separate data set.

Substitutions are numbered along the chain they refer to. Read-outs that look alike come from different tables or passages of the source. Some results are limits rather than exact numbers.

As a reminder, the Kd is the constant that tells how readily two partners part at equilibrium. Higher therefore signals a looser complex. In general, IC50 refers to the point on the concentration scale where inhibition reaches its midpoint. A low value points to higher potency.

T5 sequence (Q16552 24-155 limits assumed): as the sequence (A0A2K5TTB0 entry or part of it) above, with A3T, S8P, S34N, V77I, K78N, R104P counted along it
T3 sequence (Q16552 20-155 limits assumed, chain 1 of 2): as the sequence (Q16552 20-155 limits assumed) above
T3 sequence (Q96PD4 31-163 limits assumed, chain 2 of 2): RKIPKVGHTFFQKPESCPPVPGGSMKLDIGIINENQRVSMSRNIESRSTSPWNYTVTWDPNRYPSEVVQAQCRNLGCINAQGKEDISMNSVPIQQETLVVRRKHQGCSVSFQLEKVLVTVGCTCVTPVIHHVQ

B1: Hu049-18 (antibody, V domains shown)
VH: EVQLVQSGAEVKKPGASVKVSCKASGYTFTDYEVHWVRQAPGQGLEWMGVIDPGTGGVAYNQKFEGRVTMTADTSTSTAYMELRSLRSDDTAVYYCTRYSLFYGSSPYAMDYWGQGTLVTVSS
VL: EIVLTQSPDFQSVTPKEKVTITCSASSSVNYMHWFQQKPDQSPKLWIYRTSNLASGVPSRFSGSGSGTDYTLTINSLEAEDAATYYCQQRSSYPWTFGQGTKLEIKR
notes: Humanized mAb049
As for B1, the figures for the Kd (with Mouse IL-17A (Mu IL-17A); in the assay with Rat IL-17A; in assay [3]) were 68.1 pM, 477 pM and below 1 pM, respectively. In the assay with Cyno IL-17A, the “Cyno IL-17A (bioassay IC50)” value came to 33 pM. Further, the “huIL-17A/F Bioassay (IC50, nM)” value in [1] came to 0.684 nM. Moreover, the “huIL-17 Bioassay (IC50, nM)” value in assay [2] turned out to be 0.04 nM.

B2: Hu049-17 (antibody, V domains shown)
VH: B1 VH with A72T
VL: B1 VL
notes: Humanized mAb049
With B2, the dissociation constant Kd is 137 pM with Mouse IL-17A (Mu IL-17A), 1060 pM in the assay with Rat IL-17A and below 1 pM in assay [3]. In addition, the “Cyno IL-17A (bioassay IC50)” value with Cyno IL-17A is 30 pM. In [1], the “huIL-17A/F Bioassay (IC50, nM)” value was 0.406 nM. Also, in assay [2], the “huIL-17 Bioassay (IC50, nM)” value stood at 0.061 nM.

B3: Hu049-19 (antibody, V domains shown)
VH: B1 VH with M48I
VL: B1 VL
notes: Humanized mAb049
B3: the Kd was determined as 77.1 pM with Mouse IL-17A (Mu IL-17A), 60 pM with Rat IL-17A and 2.68 pM in assay [3]. Besides, the “Cyno IL-17A (bioassay IC50)” value with Cyno IL-17A came out at 39 pM. The “huIL-17A/F Bioassay (IC50, nM)” value in [1] stood at 0.411 nM. The “huIL-17 Bioassay (IC50, nM)” value in [2] is 0.066 nM.

B4: Hu049-20 (antibody, V domains shown)
VH: B1 VH with M48I, V68A, M70L, T74D, S77N
VL: B1 VL
As for B4, the “Cyno IL-17A (bioassay IC50)” value with Cyno IL-17A came out at 28 pM. The “huIL-17A/F Bioassay (IC50, nM)” value in assay [1] amounted to 0.674 nM. The “huIL-17 Bioassay (IC50, nM)” value in assay [2] was determined as 0.065 nM.

B5: IL17-mAb049 (antibody, V domains shown)
VH: HVQLQQSGADLVRPGASVTLSCKASGYIFTDYEVHWVKQTPVHGLEWIGVIDPGTGGVAYNQKFEGKATLTADDSSNTAYMELRSLTSEDSAVYYCTRYSLFYGSSPYAMDYWGQGTSVTVSS
VL: QIVLTQSPAIMSASPGEKVTITCSASSSVNYMHWFQQKPGTSPKLWIYRTSNLASGVPVRFSGSGSGTSYSLTISRMEAEDAATYYCQQRSSYPWTFGGGTNLEIK
notes: Murine monoclonal antibody from a hybridoma; also called murine IL-17A mouse antibody mAb049
As to B5, in assay [4], the “huIL-17A/F Bioassay (IC50, nM)” value amounted to 0.46 nM. Moreover, the “huIL-17 Bioassay (IC50, nM)” value in assay [5] came out at 0.04 nM. For the same molecule, the “ratio of OD value to that of the positive controls” value in assay [6] is 1. Also, in the assay with biotin-labeled IL-17A, the IC50 was determined as 70 pM. For the same molecule, binding in assay [7] was put at a Kd of 26.2 pM.
